Columns and labels:
rabbit IL-17 (rabbit) [1] = assay: cell-based or functional assay
rabbit IL-17 (rabbit) [2] = assay: Biacore SPR, 3 experiments; unit not printed in Table 10
mouse IL-17 (mouse) = mouse IL-17 (mouse) (UniProt Q62386); assay: assay not stated (Table 5, 'Source And Binding Information')
mouse IL-17 (mouse), sequence (Q62386 26-158 limits assumed): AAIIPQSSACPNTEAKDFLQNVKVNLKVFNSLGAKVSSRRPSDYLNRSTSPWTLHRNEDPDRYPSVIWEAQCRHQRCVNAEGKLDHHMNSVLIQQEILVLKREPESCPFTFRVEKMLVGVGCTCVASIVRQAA

ABBV-257 anti-human TNF and IL-17 DVD-Ig binding protein (bispecific antibody), sequence (heavy): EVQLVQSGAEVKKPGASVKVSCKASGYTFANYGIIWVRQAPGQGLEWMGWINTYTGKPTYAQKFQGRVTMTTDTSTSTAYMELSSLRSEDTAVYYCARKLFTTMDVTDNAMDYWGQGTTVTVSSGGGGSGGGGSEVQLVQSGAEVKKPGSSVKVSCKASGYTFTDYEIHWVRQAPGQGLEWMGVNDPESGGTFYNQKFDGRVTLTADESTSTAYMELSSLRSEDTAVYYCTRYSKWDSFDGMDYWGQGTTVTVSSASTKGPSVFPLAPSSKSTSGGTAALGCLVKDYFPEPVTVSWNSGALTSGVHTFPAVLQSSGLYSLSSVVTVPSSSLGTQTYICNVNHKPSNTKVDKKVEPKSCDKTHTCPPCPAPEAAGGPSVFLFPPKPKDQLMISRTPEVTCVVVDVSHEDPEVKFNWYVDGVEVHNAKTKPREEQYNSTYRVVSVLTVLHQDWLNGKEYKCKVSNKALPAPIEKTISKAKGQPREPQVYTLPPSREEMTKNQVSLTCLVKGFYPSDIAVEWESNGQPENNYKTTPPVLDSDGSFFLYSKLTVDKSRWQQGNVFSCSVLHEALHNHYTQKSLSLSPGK
ABBV-257 anti-human TNF and IL-17 DVD-Ig binding protein (bispecific antibody), sequence (light): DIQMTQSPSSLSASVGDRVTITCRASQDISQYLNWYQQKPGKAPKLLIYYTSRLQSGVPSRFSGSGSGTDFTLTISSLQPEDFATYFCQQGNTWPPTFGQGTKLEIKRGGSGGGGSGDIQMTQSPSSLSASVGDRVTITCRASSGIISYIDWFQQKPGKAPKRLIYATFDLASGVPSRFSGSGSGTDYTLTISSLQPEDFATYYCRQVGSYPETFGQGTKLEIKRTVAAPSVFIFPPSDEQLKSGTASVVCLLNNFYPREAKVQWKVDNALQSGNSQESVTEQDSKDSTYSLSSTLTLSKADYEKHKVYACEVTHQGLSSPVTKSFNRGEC

IC50, in vitro neutralization assay (In-Vitro Potency) (rabbit IL-17 (rabbit) [1]) [nM] | Kd (rabbit IL-17 (rabbit) [2]) [nM] | IC50 (mouse IL-17 (mouse)) [nM] | Substance
11.4 | 3.3 | – | ABBV-257 anti-human TNF and IL-17 DVD-Ig binding protein (bispecific antibody)
– | – | 0.7 | MAB421 anti-IL-17 antibody
